Measured values reported in PMC6817665.
Each block holds one substance with its values, some of them ahead of it.

Experiments:
[1] = target: CEP55 His-NOA (His-tag version of the human CEP55 NOA fragment, residues 304–396) (human) (UniProt Q53EZ4); assay: BLI
[2] = target: mixture of biotinylated K63 poly-ubiquitin chains (Ub2-7) (UniProt P0CG48); assay: BLI
[3] = target: N-terminally fluorescein-labeled CEP55 ZF mutant E460A (human) (UniProt Q53EZ4); assay: fluorescence polarisation
N-terminally fluorescein-labeled CEP55 ZF mutant E460A (human), sequence (Q53EZ4 435-464 E460A): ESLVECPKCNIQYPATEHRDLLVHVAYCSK

CEP55 His-NOA (His-tag version of the human CEP55 NOA fragment, residues 304–396) (human), sequence (Q53EZ4 304-396): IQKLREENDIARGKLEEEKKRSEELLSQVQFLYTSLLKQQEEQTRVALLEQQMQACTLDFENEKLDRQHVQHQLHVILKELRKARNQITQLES

fold by which the KD is higher than that of M1-linked Ub4 [1]: 30 fold
Substance: K63-linked tetra-ubiquitin (Ub4) (from UniProt P0CG48 1-76) (complex)

Kd [2]: 2.1 µM
Substance: Strep-tag II CEP55 ZF (StrepII-tag version of CEP55 ZF peptide, residues 435–464) (from UniProt Q53EZ4-1 435-464)

fold weaker affinity than WT [3]: 20 fold
Substance: mono-ubiquitin (from UniProt P0CG48 1-76) (natural protein)
